The target of this experiment is T1, mouse apoptosis inhibitor of macrophage (AIM), wild-type recombinant (mouse, UniProt Q9QWK4 22-352).
T1 construct: mature; also called rAIM; mouse AIM
T1 sequence (looked up): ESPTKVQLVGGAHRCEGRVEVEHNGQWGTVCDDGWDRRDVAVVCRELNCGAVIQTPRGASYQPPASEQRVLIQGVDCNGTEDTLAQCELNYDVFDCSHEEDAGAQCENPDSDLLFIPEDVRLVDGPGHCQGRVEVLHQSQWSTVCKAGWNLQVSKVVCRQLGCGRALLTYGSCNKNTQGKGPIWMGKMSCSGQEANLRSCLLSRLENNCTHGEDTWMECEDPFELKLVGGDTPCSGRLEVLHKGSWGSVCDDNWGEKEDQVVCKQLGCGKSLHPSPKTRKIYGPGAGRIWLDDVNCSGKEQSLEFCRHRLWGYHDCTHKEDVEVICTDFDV
Kind of experiment: immunofluorescence co-localisation on peritoneal macrophages, confocal microscope (FIG. 3H). On the procedure: Peritoneal macrophages isolated from AIM^{-/-} mice were plated on a Lab-Tek II chamber slide (NalgeNunk) and cultured for 2 h to let them attach to the slide. The cells were incubated with 10 μg/mL of DAMPs (mouse PRDX1-His, human PRDX1-His, human HMGB1, or mouse S100A9) with or without wild-type mouse or human rAIM (100 μg/mL) at 37° C. for 10 min. For mouse PRDX1, the mutants of 2CS or ΔSRCR3 were also used. Each ligand and AIM were immunostained with antibodies to His (for mouse and human PRDX1), HMGB1 or S100A9, followed by fluorescent-conjugated secondary antibodies. Nuclei were stained with 4′,6-diamidino-2-phenylindole (DAPI). The cells were analyzed under a florescence confocal microscope.

The record followed here is US20250108090A1 (published 2025).

B1: mouse PRDX1-His (RPF757Mu01, USCN) (ligand, UniProt P35700 1-199, looked up)
chain: MSSGNAKIGYPAPNFKATAVMPDGQFKDISLSEYKGKYVVFFFYPLDFTFVCPTEIIAFSDRADEFKKLNCQVIGASVDSHFCHLAWINTPKKQGGLGPMNIPLISDPKRTIAQDYGVLKADEGISFRGLFIIDDKGILRQITINDLPVGRSVDEIIRLVQAFQFTDKHGEVCPAGWKPGSDTIKPDVNKSKEYFSKQK
notes: also called RPDX; not shown: His tag
Take B1: the binding result was “binds”.
